According to US20130018172A1, “Metal Abstraction Peptide and Uses Thereof” (Echogen, Inc., priority 2011, published 2013):

Experiments:
[1] = ICP-MS of metal bound to purified PRL-1 variants (Ni); assay type: binding; details: for Ni bound, ICP-MS: PRL-1 variants purified on Ni-IMAC, analyzed in parallel
Experimental: Because the histidine mutant retained tight binding, mutations at C170 and/or C171 were made.
(§1) ICP-MS was used to characterize the bound metal. Purified protein samples were digested in concentrated nitric acid in PFA microcentrifuge tubes (Savillex, #s 7240, 7241) at 68±1° C. for 16.5±0.7 hours. Based on protein quantification prior to digestion, the sample was then diluted to 1.5 μM in 20 mM ammonium bicarbonate, pH 8.2, filtered through a 0.2 μm nylon filter, and injected into a VG Elemental VGII+XS Inductively-Coupled Plasma-Mass Spectrometer fitted with a microconcentric nebulizer. A minimum of two separately prepared samples were analyzed for each protein variant. Each sample was scanned twice and standards were run before, between, and after each sample scan. Drift was monitored during washes between scans of both sample and standard injections.
To confirm that the chromophore arises from protein abstraction of the metal from the charged IMAC matrix, samples were subjected to ICP-MS for semi-quantitative analysis. As extensive washing is used to remove background metals, the values obtained from this method inherently underestimate the amount of metal bound, but can be used to assess the relative affinity of different metals for the protein. Additionally, to identify an endogenous metal ligand that may have been bound to PRL-1 during expression in the cells, ICP-MS was used to look for the presence of a transition metal from the first two rows in the periodic table as well as other common biologically relevant metals. […] On average 500 μM Ni-purified protein samples were digested in nitric acid for 16 h at 70° C. were determined to contain approximately 180 μM Ni, yielding a Ni to protein stoichiometry of 1:2.7+/−0.7. Zn was also detected in the Ni-purified samples at approximately 60 μM. […] Because ICP-MS analysis is conducted in a flow of Ar and the most abundant isotope of Ar has the same mass as Ca, Ca binding cannot be determined from the primary mass signal. Nonetheless, because a much higher amount of Ca was present in the cell culture media compared to Zn and yet the ICP-MS signal corresponds largely to zinc, the protein is unlikely to bind calcium.

[2] = ICP-MS of metal bound to purified PRL-1 (Zn); assay type: binding
Experimental: as §1
To confirm that the chromophore arises from protein abstraction of the metal from the charged IMAC matrix, samples were subjected to ICP-MS for semi-quantitative analysis. […] On average 500 μM Ni-purified protein samples were digested in nitric acid for 16 h at 70° C. were determined to contain approximately 180 μM Ni, yielding a Ni to protein stoichiometry of 1:2.7+/−0.7. Zn was also detected in the Ni-purified samples at approximately 60 μM. […] Because ICP-MS analysis is conducted in a flow of Ar and the most abundant isotope of Ar has the same mass as Ca, Ca binding cannot be determined from the primary mass signal. […]

[3] = Metal displacement from Ni-purified PRL-1 (EDTA exchange, guanidinium hydrochloride and heat); assay type: physicochemical
Experimental: UV-Vis absorption spectra were used to measure the concentration of the PRL-1 protein. The concentrations of purified PRL-1 analogs were measured at 280 nm and calculated using an extinction coefficient of 19420 M^−1 cm^−1. Because of possible metal-protein absorption interferences in the high 200 nm region, the validity of the UV-Vis quantification method was confirmed by the Bradford method. Spectra of PRL-1 analogs at concentrations of 10, 5, 2.5, and 1.25 mg/mL were collected on a Cary 100 UV-Vis spectrophotometer from 800 to 200 nm. […] The resulting spectra were resolved and peak positions were evaluated using GRAMS/AI 7.00 software. Three methods were aimed at metal displacement. In the first, PRL-1-WT (e.g., wild type) samples were reduced using 20 mM β-mercaptoethanol (BME), and imidazole was added to a concentration of 10 mM. For 0.5 mM protein samples, this corresponds to 400-fold solution excess of BME to compete with the two C-terminal cysteine thiols and a 200-fold solution excess of imidazole to compete with the single C-terminal histidine imidazole side chain. New baselines were taken and the spectra recalculated. In the second method, baselines were recalculated for buffer containing 100 μM EDTA, and the spectrum for the PRL-1-WT sample that was exchanged ten million fold in 100 μM EDTA was recorded. Finally, 10 mg/mL protein samples were denatured in 5.6 M guanidinium hydrochloride and heated to 90° C., new baselines were taken, and the spectra were collected at 0, 2, 4 and 6 hrs.
Ni binding in PRL-1 was not affected by reduction of the disulfide bond at PRL-1's active site. […] Subtraction of the reduced spectrum from the oxidized confirms that there was no significant difference in metal coordination between the reduced and oxidized WT samples. To examine whether a small contribution from a His is made, additional imidazole was added to the solution to increase the signal strength of a transient association. […] Additionally, no spectral change was observed when the Ni-purified sample was reduced in the presence of imidazole. […]

[4] = Solubility of PRL-1 on loss of metal; assay type: physicochemical; details: metal-free protein
[5] = UV-Vis absorption spectroscopy of Ni coordination by PRL-1 variants; assay type: binding; details: relative to wild-type, Ni-purified
Experimental: UV-Vis absorption spectra were used to measure the concentration of the PRL-1 protein. The concentrations of purified PRL-1 analogs were measured at 280 nm and calculated using an extinction coefficient of 19420 M^−1 cm^−1. Because of possible metal-protein absorption interferences in the high 200 nm region, the validity of the UV-Vis quantification method was confirmed by the Bradford method. Spectra of PRL-1 analogs at concentrations of 10, 5, 2.5, and 1.25 mg/mL were collected on a Cary 100 UV-Vis spectrophotometer from 800 to 200 nm. […] The resulting spectra were resolved and peak positions were evaluated using GRAMS/AI 7.00 software. Three methods were aimed at metal displacement. […] In the second method, baselines were recalculated for buffer containing 100 μM EDTA, and the spectrum for the PRL-1-WT sample that was exchanged ten million fold in 100 μM EDTA was recorded. […]
Accordingly, characterization of metal coordination by PRL-1 was determined with UV-Vis absorption spectroscopy. The metal coordination geometry employed by PRL-1 and its mutants was analyzed using UV-Vis absorption spectroscopy at 800-200 nm. Absorption spectra of PRL-1 produced peaks at 280 and 220 nm, which arise from aromatic and peptide bonds within the protein and correspond well with the concentration determined using the Bradford assay. […]

B1: PRL-1: recombinant human PRL-1 (phosphatase of regenerating liver) wild type, C-terminal NCC motif (protein, UniProt Q93096 1-170, looked up)
Protein tyrosine phosphatase …: MARMNRPAPVEVTYKNMRFLITHNPTNATLNKFIEELKKYGVTTIVRVCEATYDTTLVEKEGIHVLDWPFDDGAPPSNQIVDDWLSLVKIKFREEPGCCIAVHCVAGLGRAPVLVALALIEGGMKYEDAVQFIRQKRRGAFNSKQLLYLEKYRPKMRLRFKDSNGHRNNC
For B1, the “Ni bound, ICP-MS” value [1] was “approximately 120 μM”, the “Ni level in Zn-IMAC purified protein, ICP-MS” value ([1]; Zn-IMAC purified) was “only background levels” and the “Ni content of Ni-purified protein samples, ICP-MS” value ([1]; on average 500 μM Ni-purified protein, digested in nitric acid 16 h at 70° C., semi-quantitative) was “approximately 180 μM”. For the same molecule, the “Zn detected in Ni-purified samples, ICP-MS” value ([2]; Ni-IMAC purified) was “approximately 60 μM”, the “Zn content after Zn-IMAC purification, ICP-MS” value ([2]; Zn-IMAC purified) was 270 µM and the “loss of peaks at 318, 421 and 526 nm (Ni release)” value ([3]; 5.6 M guanidinium hydrochloride at 90° C.) was “only gradually disappeared over 6 hrs”. For the same molecule, the “reversibility of Ni binding” value ([3]; pH 7.4) was “irreversible” and the “effect of EDTA exchange on the absorption spectrum” value ([3]; ten million-fold exchange into buffer containing 100 μM EDTA) was “little effect on the spectrum”.

B2: Apo PRL-1: PRL-1 without bound metal (protein, UniProt Q93096 1-170, looked up)
Protein tyrosine phosphatase …: MARMNRPAPVEVTYKNMRFLITHNPTNATLNKFIEELKKYGVTTIVRVCEATYDTTLVEKEGIHVLDWPFDDGAPPSNQIVDDWLSLVKIKFREEPGCCIAVHCVAGLGRAPVLVALALIEGGMKYEDAVQFIRQKRRGAFNSKQLLYLEKYRPKMRLRFKDSNGHRNNC
modifications: metal-free
With B2 the solubility [4] was “poorly soluble”.

B3: PRL-1-C170S: PRL-1 mutant, cysteine 170 replaced by serine (protein, UniProt Q93096 1-170, looked up, variant C170S)
Protein tyrosine phosphatase …: MARMNRPAPVEVTYKNMRFLITHNPTNATLNKFIEELKKYGVTTIVRVCEATYDTTLVEKEGIHVLDWPFDDGAPPSNQIVDDWLSLVKIKFREEPGCCIAVHCVAGLGRAPVLVALALIEGGMKYEDAVQFIRQKRRGAFNSKQLLYLEKYRPKMRLRFKDSNGHRNNS
With B3 the “Ni bound, ICP-MS” value [1] was “No Ni was detected”.

B4: PRL-1-H166A: PRL-1 mutant, histidine 166 of the NGH motif replaced by alanine (protein, UniProt Q93096 1-170, looked up, variant H166A)
Protein tyrosine phosphatase …: MARMNRPAPVEVTYKNMRFLITHNPTNATLNKFIEELKKYGVTTIVRVCEATYDTTLVEKEGIHVLDWPFDDGAPPSNQIVDDWLSLVKIKFREEPGCCIAVHCVAGLGRAPVLVALALIEGGMKYEDAVQFIRQKRRGAFNSKQLLYLEKYRPKMRLRFKDSNGARNNC
In the case of B4, the “Ni bound, ICP-MS” value [1] is reported as roughly 60 µM and the “decrease in signal measured by absorption spectroscopy” value [5] is reported as 20%.
